Several values for one entry are separate records, joined by “and”; a condition that tells them apart may be missing. Equal values may be shown once.
Columns and labels:
[1] = target: RGS-Z fused to the Gal4 activation domain (RGS-Z-pACT2) (yeast; human) (UniProt O76081); experiment: cell-based or functional assay
[2] = target: KDR (Homo sapiens, UniProt P35968)
[3] = target: T1, KChIP1 fused to the Gal4 activation domain (hKChIP1-pACT2) (yeast; human, UniProt Q9NZI2-2 1-216, limits assumed); experiment: cell-based or functional assay
T1 sequence (looked up): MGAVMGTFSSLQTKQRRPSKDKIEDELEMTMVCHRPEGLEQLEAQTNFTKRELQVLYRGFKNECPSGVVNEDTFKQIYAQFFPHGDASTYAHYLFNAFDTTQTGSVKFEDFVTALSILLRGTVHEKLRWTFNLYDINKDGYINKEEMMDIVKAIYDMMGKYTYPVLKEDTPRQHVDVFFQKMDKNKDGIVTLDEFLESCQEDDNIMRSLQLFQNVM

[4] = target: T2, extracellular domain of rat growth hormone receptor (GHR, amino acids 1-247) fused to the Gal4 DNA binding … (yeast; rat, UniProt P04386 1-147; P16310 19-265); experiment: yeast two-hybrid, HIS3 growth on selective medium (strain CY722)
T2 construct: Expressed inside yeast (two-hybrid); also called GHR fusion; GHR-GAL4 fusion; not shown: polylinker residues of pAS2; not described

[5] = target: T3, GH and GHR fusion proteins (Rattus norvegicus, UniProt P16310); experiment: Yeast two-hybrid competition assay: free peptide co-expressed with GH and GHR fusion proteins, growth on selective medium; assay type: cell-based; parameters: key to Growth: +: scored for cell growth, indicated by a plus; details: for Effect of co-expressed free peptide on GH-GHR-dependent cell growth on selective medium: free peptide expressed from pCUP in a strain with GH and GHR fusions
T3 construct: encoding amino acids 1-247 of the rat GHR (Baumbach et al., 1989); expressed in transfected cells; host or cells: Saccharomyces cerevisiae CY770 (URA- derivative of Y190)
T3 sequence (P16310 19-265): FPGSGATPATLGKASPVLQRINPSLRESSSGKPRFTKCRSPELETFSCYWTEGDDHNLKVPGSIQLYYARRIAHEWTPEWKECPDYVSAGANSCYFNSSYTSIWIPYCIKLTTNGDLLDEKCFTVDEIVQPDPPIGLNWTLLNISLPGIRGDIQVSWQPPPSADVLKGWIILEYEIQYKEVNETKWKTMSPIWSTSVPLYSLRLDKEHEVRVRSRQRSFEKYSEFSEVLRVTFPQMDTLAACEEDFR

[6] = target: T2, extracellular domain of rat growth …; experiment: in vivo competition in yeast two-hybrid, free GH from pCUP (strain CY781)
[7] = target: T4, PRL and PRLR fusion proteins (Sus scrofa, UniProt Q6JTA8, M232L/S231T); experiment: Yeast two-hybrid competition assay: free peptide co-expressed with PRL and PRLR fusion proteins, growth on selective medium; assay type: cell-based, porcine; details: free peptide expressed from pCUP in a strain with PRL and PRLR fusions
T4 construct: flank the extracellular domain of the PRLR, encoding amino acids 1-229; expressed in transfected cells; host or cells: Saccharomyces cerevisiae (URA- derivative of Y190; strains CY786/CY787)
T4 sequence (Q6JTA8 with tags, fused parts or gaps): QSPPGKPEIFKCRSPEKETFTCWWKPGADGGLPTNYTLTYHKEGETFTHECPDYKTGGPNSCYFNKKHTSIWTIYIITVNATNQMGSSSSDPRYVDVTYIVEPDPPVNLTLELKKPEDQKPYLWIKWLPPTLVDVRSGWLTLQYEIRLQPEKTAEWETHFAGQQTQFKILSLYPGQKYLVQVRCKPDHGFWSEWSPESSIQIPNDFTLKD
Description: To expand and validate this technology, a similar system was developed using the peptide hormone prolactin (PRL) and its receptor. Prolactin is structurally related to GH and the prolactin receptor (PRLR) is also a member of the cytokine receptor superfamily. […] Mature porcine PRL is generated as a fusion to the GAL4 activation domain. Oligonucleotides are designed to pig PRL (obtained from GenBank; […] No. X14068), and used to generate the mature pig PRL protein hormone from a pig pituitary lambda gt11 library, using standard PCR methods. A 31 base 5' oligonucleotide includes an EcoRI site ([NT] ID NO: 7) and corresponds to sequences encoding amino acids 1-7. A 30 base 3' oligonucleotide contains an EcoRI site ([NT] ID NO: 8) and corresponds to a region of cDNA 3' to the endogenous termination codon. A 600 bp fragment is obtained, ligated into vector pCR 11, and confirmed by restriction enzyme digest and sequence analysis. The PRL cDNA is cloned into pACT-II via the EcoRI site. The extracellular domain of the porcine PRL receptor (PRLR) is generated as a fusion to GAL4 DNA binding domain. Oligonucleotides are designed based on sequence of the mouse PRLR (Davis and Linzer, 1989) A 31 base 5' oligonucleotide contains a […] ID NO: 9) while the 31 base 3' oligonucleotide contains a termination codon followed by a […] ID NO: 10). […]

KDR, sequence (P35968 20-764 limits assumed): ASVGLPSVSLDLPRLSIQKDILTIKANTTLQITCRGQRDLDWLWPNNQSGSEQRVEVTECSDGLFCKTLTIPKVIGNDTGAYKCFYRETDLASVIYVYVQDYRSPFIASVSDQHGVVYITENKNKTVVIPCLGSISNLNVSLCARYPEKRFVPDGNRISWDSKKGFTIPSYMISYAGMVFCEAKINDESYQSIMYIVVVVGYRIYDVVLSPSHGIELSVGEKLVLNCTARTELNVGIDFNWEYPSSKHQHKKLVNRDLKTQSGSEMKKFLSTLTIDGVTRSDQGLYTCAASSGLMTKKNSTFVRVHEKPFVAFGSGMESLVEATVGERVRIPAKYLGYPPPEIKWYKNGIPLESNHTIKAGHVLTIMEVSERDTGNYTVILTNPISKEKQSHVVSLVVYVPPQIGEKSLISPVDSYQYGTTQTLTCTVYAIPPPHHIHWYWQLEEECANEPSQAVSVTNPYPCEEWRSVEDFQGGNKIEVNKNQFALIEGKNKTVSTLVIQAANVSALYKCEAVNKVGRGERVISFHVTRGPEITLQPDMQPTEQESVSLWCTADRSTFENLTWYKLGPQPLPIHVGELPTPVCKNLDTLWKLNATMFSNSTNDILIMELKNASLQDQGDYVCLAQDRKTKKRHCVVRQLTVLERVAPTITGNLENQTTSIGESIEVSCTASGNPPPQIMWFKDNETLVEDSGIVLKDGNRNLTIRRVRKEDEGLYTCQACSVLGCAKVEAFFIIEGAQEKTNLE
KDR, sequence (P35968 20-764 limits assumed): as above

Molecule: constitutively active G-alphaZ Q205L fused to the Gal4 DNA binding domain (Q205L/GaZ-pGBKT7) (from UniProt P04386 1-147; P19086 1-355)
- firefly luciferase activity, ybn66L in a 75:25 mix with ybn77L (OD 0.25 and 0.15) (luminescence units) [1]: 950000
- increase in Renilla luciferase activity, strain ybn70L [1]: 40 fold
- induction of luciferase activity, interaction strain (ybn66L) against control strains [1]: 5 fold and 10 fold

Molecule: VEGF
- Growth on selective media of strain expressing two KDR receptor fusion proteins plus free ligand [2]: substantial growth on selective media

B1: N-terminus of the potassium channel 4.3 (hKv4.3N) fused to the Gal4 DNA binding domain (hKv4.3N-pGBT9) (other, yeast;human, UniProt P04386 1-147, looked up)
chain: MKLLSSIEQACDICRLKKLKCSKEKPKCAKCLKNNWECRYSPKTKRSPLTRAHLTEVESRLERLEQLFLLIFPREDLDMILKMDSLQDIKALLTGLFVQDNVNKDAVTDRLASVETDMPLTLRQHRISATSSSEESSNKGQRQLTVSMAAGVAAWLPFARAAAIGWMPVANCPMPLAPADKNKRQDELIVLNVSGRRFQTWRTTLERYPDTLLGSTEKEFFFNEDTKEYFFDRDPEVFRCVLNFYRTGKLHYPRYECISAYDDELAFYGILPEIIGDCCYEEYKDRKRENAERLMDDNDSENNQESMPSLSFRQTMWRAFENPHTST
- increase in Renilla luciferase activity, strain ybn77L [3]: 25 fold
- increase in luciferase activity (Gal1/10-luciferase reporter), both fusions against one fusion plus empty vector [3]: 30 fold
- increase in luciferase activity (low copy CEN Gal-luciferase reporter Kp132), test strain against negative control strain [3]: 100 fold

B2: porcine growth hormone (GH) fused to the Gal4 activation domain (GH in pACT-II) (ligand, UniProt P01248 27-216, looked up, not shown: large carriers; small tags and cut ends)
chain: FPAMPLSSLFANAVLRAQHLHQLAADTYKEFERAYIPEGQRYSIQNAQAAFCFSETIPAPTGKDEAQQRSDVELLRFSLLLIQSWLGPVQFLSRVFTNSLVFGTSDRVYEKLKDLEEGIQALMRELEDGSPRAGQILKQTYDKFDTNLRSDDALLKNYGLLSCFKKDLHKAETYLRVMKCRRFVESSCAF
notes: mature; Expressed inside yeast (two-hybrid); also called GH-Gal4 fusion protein; GH fusion
- binding result [4]: binds

B3: GH: mature porcine growth hormone expressed as free ligand from pCUP plasmid (protein, UniProt P01248 27-216, looked up)
Somatotropin: FPAMPLSSLFANAVLRAQHLHQLAADTYKEFERAYIPEGQRYSIQNAQAAFCFSETIPAPTGKDEAQQRSDVELLRFSLLLIQSWLGPVQFLSRVFTNSLVFGTSDRVYEKLKDLEEGIQALMRELEDGSPRAGQILKQTYDKFDTNLRSDDALLKNYGLLSCFKKDLHKAETYLRVMKCRRFVESSCAF
- Effect of co-expressed free peptide on GH-GHR-dependent cell growth on selective medium [5]: block GH-GHR-dependent cell growth on selective medium

B4: free porcine growth hormone expressed from pCUP (GH-pCUP) (ligand, UniProt P01248 27-216, looked up)
chain: FPAMPLSSLFANAVLRAQHLHQLAADTYKEFERAYIPEGQRYSIQNAQAAFCFSETIPAPTGKDEAQQRSDVELLRFSLLLIQSWLGPVQFLSRVFTNSLVFGTSDRVYEKLKDLEEGIQALMRELEDGSPRAGQILKQTYDKFDTNLRSDDALLKNYGLLSCFKKDLHKAETYLRVMKCRRFVESSCAF
notes: mature; Non-fusion GH; also called free GH; free ligand
- binding result [6]: binds

B5: PRL: mature porcine prolactin expressed as free peptide from pCUP plasmid (protein)
chain: LPICPSGAVNCQVSLRDLFDRAVILSHYIHNLSSEMFNEFDKRYAQGRGFITKAINSCHTSSLSTPEDKEQAQQIHHEVLLNLILRVLRSWNDPLYHLVTEVRGMQEAPDAILSRAIEIEEQNKRLLEGMEKIVGQVHPGIKENEVYSVWSGLPSLQMADEDTRLFAFYNLLHCLRRDSHKIDNYLKLLKCRIIYDSNC
modifications: left off: large carriers; small tags and cut ends
notes: mature porcine prolactin expressed as free peptide from pCUP plasmid
- Effect of co-expressed free peptide on GH-GHR-dependent cell growth on selective medium [5]: grows on selective medium
- Growth ([5]; strain with GH and GHR fusions plus free peptide expressed from pCUP, selective medium, 3 to 5 days at 30 C): +
- Effect of co-expressed free peptide on PRL-PRLR-dependent cell growth on selective medium [7]: growth is abrogated

From patent publication US6770446B1, “Cell systems having specific interaction of peptide binding pairs” (Wyeth, priority 1994, dated 2004)
